From patent US7192720

Experiments:
[1] = target: soluble rhTNFR-1 extracellular domain protein (human) (UniProt P19438); assay: Western blot of soluble hTNFR probed with AF225 pre-mixed with 1:10 BAF225-3 : wild type T7 phage; plaque lift of recovered phage with AF225
[2] = target: soluble rhTNFR-1 extracellular domain protein (human) (UniProt P19438); assay: Western blot of soluble hTNFR probed with AF225 pre-mixed with 1:10 BAF225-3 : wild type T7 phage; phage eluted from excised bands and titered

Chain of UniProt P19438 (P19438 30-211 limits assumed): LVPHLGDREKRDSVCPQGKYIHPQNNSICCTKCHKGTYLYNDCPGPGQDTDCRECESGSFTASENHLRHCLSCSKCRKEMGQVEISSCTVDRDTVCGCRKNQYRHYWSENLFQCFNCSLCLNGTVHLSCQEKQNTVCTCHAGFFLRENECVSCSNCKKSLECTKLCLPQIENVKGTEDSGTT

enrichment of target phage relative to negative phage [1]: 190 fold
percent of phage recovered from the TNFR band that were target phage [1]: 95%
fold more phage recovered from the TNFR band than from the negative control [2]: 100 fold
Substance: goat anti-hTNFR polyclonal antibody (AF225)
